Holding throughout (assay): ELISA
(ELISA stands for enzyme-linked immunosorbent assay.)

Substrate in assay [1]: FN-B, recombinant human fibronectin extra domain B (EDB) as a single domain
To be noted: chain shown with the change; pre-coated human FN-B; detection with HRP-conjugated anti-S-tag antibody; parent: est. 100; read off a plot.

For assay [2], the target named is FN-6789, human fibronectin type III domains 6–9 without EDB. Conditions: chain shown with the change, FN-6789 coated 1 µg/well, read off a plot.
Assay [3] addresses FN-67B89, human fibronectin EDB flanked by its surrounding type III domains. Conditions: chain shown with the change, FN-67B89 coated 1 µg/well, read off a plot.

FN-B, recombinant human fibronectin extra domain B (EDB) as a single domain, sequence (chain, as listed by the source): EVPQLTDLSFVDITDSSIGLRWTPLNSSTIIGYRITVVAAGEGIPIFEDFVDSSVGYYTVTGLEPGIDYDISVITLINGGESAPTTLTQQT
FN-67B89, human fibronectin EDB flanked by its surrounding type III domains, sequence (chain, as listed by the source): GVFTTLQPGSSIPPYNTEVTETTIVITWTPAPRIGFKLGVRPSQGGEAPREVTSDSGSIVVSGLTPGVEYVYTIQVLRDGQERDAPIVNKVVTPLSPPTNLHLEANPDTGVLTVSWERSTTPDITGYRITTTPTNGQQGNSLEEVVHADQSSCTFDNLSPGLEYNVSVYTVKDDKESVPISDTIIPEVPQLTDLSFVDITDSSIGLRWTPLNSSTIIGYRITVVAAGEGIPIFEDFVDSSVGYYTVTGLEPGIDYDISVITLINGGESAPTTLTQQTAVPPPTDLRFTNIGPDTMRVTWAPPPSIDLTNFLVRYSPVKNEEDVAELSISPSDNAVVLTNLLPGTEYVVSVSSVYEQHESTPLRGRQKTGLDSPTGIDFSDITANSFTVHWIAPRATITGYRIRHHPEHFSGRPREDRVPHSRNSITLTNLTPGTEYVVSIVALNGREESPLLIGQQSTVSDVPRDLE
FN-6789, human fibronectin type III domains 6–9 without EDB, sequence (chain, as listed by the source): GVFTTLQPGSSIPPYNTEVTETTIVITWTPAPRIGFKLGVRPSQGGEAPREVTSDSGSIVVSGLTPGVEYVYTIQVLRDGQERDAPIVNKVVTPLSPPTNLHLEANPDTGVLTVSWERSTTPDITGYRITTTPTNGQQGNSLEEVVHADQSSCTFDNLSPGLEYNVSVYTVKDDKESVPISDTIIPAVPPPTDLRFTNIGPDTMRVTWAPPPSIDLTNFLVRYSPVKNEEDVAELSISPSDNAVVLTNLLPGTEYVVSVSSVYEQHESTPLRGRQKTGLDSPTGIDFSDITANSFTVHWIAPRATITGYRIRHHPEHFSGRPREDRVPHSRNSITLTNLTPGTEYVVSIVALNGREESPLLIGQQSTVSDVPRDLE

B1: Trx-MC-FN-010, Thioredoxin-A fusion of cystine-knot miniprotein MC-FN-010 P1A (peptide)
chain: AMCTQRKNRIRLCRRDSDCTGACICRGNGYCG
As for B1, the percent of parent in assay [1] is 130%.

B2: Trx-MC-FN-010, Thioredoxin-A fusion of cystine-knot miniprotein MC-FN-010 M2A (peptide)
chain: PACTQRKNRIRLCRRDSDCTGACICRGNGYCG
For the molecule B2, in assay [1], the percent of parent came to 100%.

B3: Trx-MC-FN-010, Thioredoxin-A fusion of cystine-knot miniprotein MC-FN-010 R15A (peptide)
chain: PMCTQRKNRIRLCRADSDCTGACICRGNGYCG
For the molecule B3, the percent of parent in assay [1] stood at 61%.

B4: Trx-MC-FN-010, Thioredoxin-A fusion of cystine-knot miniprotein MC-FN-010 Q5A (peptide)
chain: PMCTARKNRIRLCRRDSDCTGACICRGNGYCG
B4: the percent of parent in assay [1] was 65%.

B5: Trx-MC-FN-010, Thioredoxin-A fusion of cystine-knot miniprotein MC-FN-010 R6A (peptide)
chain: PMCTQAKNRIRLCRRDSDCTGACICRGNGYCG
B5: the percent of parent in assay [1] came out at 83%.

B6: Trx-MC-FN-010, Thioredoxin-A fusion of cystine-knot miniprotein MC-FN-010 K7A (peptide)
chain: PMCTQRANRIRLCRRDSDCTGACICRGNGYCG
Turning to B6, the response (Absorbance (450 nm)) in assay [2] (25 nM Trx-miniprotein, parent: est. 0.30) came out at 0.09; in assay [2] (50 nM Trx-miniprotein, parent: est. 0.62) it was 0.13; in assay [3] (1.56 nM Trx-miniprotein, parent: est. 0.70), 0.62; in assay [3] (3.13 nM Trx-miniprotein, parent: est. 1.5) it was 1.1; in assay [3] (6.25 nM Trx-miniprotein, parent: est. 2.2), 1.7; in assay [3] (12.5 nM Trx-miniprotein, parent: est. 3.0), 2.4. In addition, the response (Absorbance (450 nm)) was found to be 2.9 in assay [3] (25 nM Trx-miniprotein, parent: est. 3.4) and 3.1 in assay [3] (50 nM Trx-miniprotein, parent: est. 3.7). Further, the percent of parent in assay [1] is 320%.

B7: Trx-MC-FN-010, Thioredoxin-A fusion of cystine-knot miniprotein MC-FN-010 R9A (peptide)
chain: PMCTQRKNAIRLCRRDSDCTGACICRGNGYCG
With B7, in assay [1], the percent of parent was 5%.

B8: Trx-MC-FN-010, Thioredoxin-A fusion of cystine-knot miniprotein MC-FN-010 T4A (peptide)
chain: PMCAQRKNRIRLCRRDSDCTGACICRGNGYCG
On to B8, for which, in assay [1], the percent of parent was 100%.

B9: Trx-MC-FN-010, Thioredoxin-A fusion of cystine-knot miniprotein MC-FN-010 N8A (peptide)
chain: PMCTQRKARIRLCRRDSDCTGACICRGNGYCG
As for B9, the percent of parent in assay [1] is 88%.

B10: Trx-MC-FN-010, Thioredoxin-A fusion of cystine-knot miniprotein MC-FN-010 R14A (peptide)
chain: PMCTQRKNRIRLCARDSDCTGACICRGNGYCG
Turning to B10, the percent of parent in assay [1] came to 71%.

Values taken from paper PMC6962393, “Targeting the tumor vasculature with engineered cystine-knot miniproteins” (Nature Communications, 2020).
